Measurements from the supplement of paper PMC12042874.
± gives the uncertainty stated by the source.

Test: amyloid nucleation score (Sup35N fusion, yeast selection) (log enrichment); library NNK1; higher = more nucleation; inactive = no reads after selection
Summary of the method: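 Output and input plasmid inserts were sequenced by Illumina after psi-negative yeast carrying Sup35N fused to peptides of 20 random codons had been induced 24 hours with 100 μM copper sulfate and grown 7 days at 30°C on medium lacking adenine and uracil. The nucleation score is the DiMSum log enrichment of output over input reads, centred on the mode score of non-aggregating sequences. Sequences with under 100 input reads were excluded.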

| Substance | amyloid nucleation score |
| --- | --- |
| SKDCNKWVRPRHGLYRFGGF | 0.071 ± 0.34 |
| STLFSWNRRNCDTHVLLVPW | inactive |
| YAYFVSWGVFVIENVFPYKY | -1.27 ± 0.66 |
| KYSLNM | -0.872 ± 1.4 |
| EKRRNNTSNRSWSGSYFLDT | 0.111 ± 0.28 |
| LRALSYWIPARTPIVEGYAK | -0.333 ± 0.32 |
| RTLMRLN | -0.762 ± 0.41 |
| FWNMWAYEMRFVLRNYAL | -0.908 ± 0.43 |
| GYSAYRFGQCMSETGRRRIH | 1.42 ± 0.72 |
| NIVFMCMCGLDI | 0.895 ± 0.29 |
| LYYRKLVCWESGMA | 0.318 ± 0.66 |
| LAPISSASLQTFPVAIFRFR | 0.122 ± 0.43 |
| LCARFWDCRFKVQ | 0.142 ± 1.4 |
| SSSHPSLIGNLDTRLNWMTM | 1.52 ± 0.32 |
| VLLFVVLHLNLSVHILQNFQ | -0.396 ± 0.54 |
| GLYLDFGYSGCYGKKL | 5.67 ± 0.082 |
| YGRVTDYCKCCVILRLSYWV | -0.993 ± 0.77 |
| IAYGSINCGFNRL | 1.18 ± 0.32 |
| DQIGDYLRFACSDKDYS | 0.039 ± 0.76 |
| RRLHMLVNHLKCAGATRGGR | -0.172 ± 0.34 |
| FKEDITFADGISDWSCQYTM | inactive |
| CLLTNTKFWYISMSHDLGCL | 0.559 ± 0.34 |
| GCFASTSNTRC | 1.05 ± 0.66 |
| AWDFWTWVSSGVWWYDASVR | -0.398 ± 0.91 |
| NVYWNRWAMTFWLSGDEMWF | 1.27 ± 0.42 |

| Substance | amyloid nucleation score |
| --- | --- |
| NYCFLNQDFCD | 3.61 ± 0.2 |
| VAVTITYAICDTLILFIEGG | 4.08 ± 0.1 |
| GLFYW | 1.06 ± 0.72 |
| FMKSKAAAYS | -0.247 ± 0.63 |
| FQSISGFSATHWIFFMEGTY | 0.216 ± 0.45 |
| RRLTRIIKAKL | 0.018 ± 0.78 |
| IYMVSC | 0.077 ± 0.27 |
| GKSRS | 0.784 ± 0.49 |
| GLTRFGGPSTMIFMDL | -0.201 ± 0.8 |
| KVIRVYRADCCFTGWHFAVA | -0.224 ± 0.77 |
| IYFLR | -0.103 ± 0.42 |
| TFAFISLDMVWLASAH | -0.051 ± 0.26 |
| FHHMVLE | -0.783 ± 0.54 |
| EDRDTLKGM | 0.806 ± 0.57 |
| VSDFGLGHGKQWRCRRQISL | 0.685 ± 0.79 |
| LDVLWTGSRSAAA | -0.05 ± 0.38 |
| MIQVPFKCPCKLTADLGGNW | inactive |
| CCGMSGLSIGDGKNFMSGWV | 1.82 ± 0.45 |
| IRANLEDVLHIFIPVEGHSR | -0.655 ± 1.1 |
| AFNRSKQSIKAFSA | -0.369 ± 1.2 |
| RCISIRAYVTLFRNEYLCSN | 4.86 ± 0.1 |
| INDCYFMWGNLFCYVCVMLL | 1.66 ± 0.46 |
| DERNACLSSFGVNLRLIKLS | -0.002 ± 0.4 |
| IGIGWATSLCLDRDLFVTSG | 0.029 ± 1.2 |
| RRCMLLYCGLGAGALGSDGR | -0.539 ± 1.1 |

| Substance | amyloid nucleation score |
| --- | --- |
| YSIDTGS | inactive |
| NCNKSFNLLECGSFGTVGPM | -0.324 ± 0.6 |
| ILELGGCLVYYRGN | 0.087 ± 0.69 |
| TSPSRIMS | 1.12 ± 0.35 |
| WRYRRCSYY | 0.781 ± 0.47 |
| PVVCYTVAFVTGSTDVV | -0.139 ± 1.3 |
| VITRFYGSVGLRIPAIAVVL | 0.886 ± 0.58 |
| GVVCCTANF | 5.68 ± 0.065 |
| IARFHTDSYHYRY | -0.08 ± 1.1 |
| WISHSVSLFVSVLGMWMSRD | -2.09 ± 2.4 |
| SLWFTYCQ | 0.751 ± 0.38 |
| GVQWKLIFIGQCAVAVAWLA | -2.05 ± 1.8 |
| NRECYYRPGNALNHGFFQIL | 0.479 ± 1.2 |
| CYAPSGLLNLPNASFS | -1.26 ± 1.5 |
| KMKSEDT | 1.07 ± 0.25 |
| HVVVHDGSTQLWDARVRKWP | 0.558 ± 0.64 |
| SCWVDSDHLNCFIYFTFVNT | -1.27 ± 2.7 |
| LKNTVHWTADHFRVTSP | -0.623 ± 0.67 |
| HKCWVDGIVY | 0.577 ± 0.48 |
| PSNPFHCVMKARKSLNGIDR | -0.09 ± 0.29 |
| VEGLEDGVWR | 0.876 ± 0.38 |
| GLYKYYRSLILSLVSFNFS | 1.18 ± 0.16 |
| FFGGNSAVVVIRWMSRSGHW | 0.489 ± 0.64 |
| TCRIVVGSSCFRSTVFSFLY | 1.45 ± 0.68 |
| ELSGGA | 3.75 ± 0.1 |

| Substance | amyloid nucleation score |
| --- | --- |
| SYLMQSFDKLCAA | -0.033 ± 1.1 |
| STYTALIFLHRSVFDLPSVQ | 0.787 ± 0.68 |
| LFNKNGYNSETRFLFKLGFD | 1.02 ± 0.56 |
| HNMGWLFLLAVYLQMFT | -0.765 ± 1.1 |
| PYFDTEHERVKDH | 0.398 ± 0.62 |
| TCGLHQPFLGLFVSSSSIMT | 0.175 ± 0.41 |
| VQHRIISLALVYNTYNFSFS | 8.018 ± 0.074 |
| FSISKLFGLNADTVHTRHKK | 0.073 ± 0.38 |
| AVLSGRHWHTLYNSIALSEL | 0.869 ± 0.45 |
| CNISAITRFTEIWSRVTSVF | 1.59 ± 0.8 |
| LRENPQLGVVTGLTLGSDLP | 0.19 ± 0.5 |
| TGCHKS | 0.915 ± 0.97 |
| TCRVEMPSCCCFSGIVGCDR | 3.53 ± 0.067 |
| NLKSSYSAIPLFFIWCGTSV | 0.114 ± 0.31 |
| RNNSVLLLSSYANKRYSPAW | -0.439 ± 0.78 |
| KGLLTGSCVDSS | -0.015 ± 0.51 |
| YSWLVWGTSPV | 0.445 ± 0.38 |
| FPLAIVLIVN | 0.059 ± 0.39 |
| LNVNRWYTISL | 0.972 ± 0.25 |
| WWIGNSTRYCVGMVWSI | inactive |
| TSMPDLGWAVSVAAQFYNFQ | 5.5 ± 0.077 |
| TKCIINEIVDDG | -1.35 ± 2.4 |
| DRGMMCALVFYRHL | 0.691 ± 0.56 |
| LPDIGCFPRTIGCMTQAECG | -0.381 ± 1 |
| MVLDLVRRNAQL | -0.151 ± 0.68 |

| Substance | amyloid nucleation score |
| --- | --- |
| SMCNCDPSVALRSMY | -0.279 ± 0.25 |
| TCLMRSRLACMFVRINEW | 1.19 ± 0.62 |
| GNANVKCGVRAISDNRARRI | 0.003 ± 0.43 |
| TDCQRYI | 1.6 ± 0.54 |
| CGEIENRMVTEAVTALLLYD | 0.034 ± 0.41 |
| AFIDDRAVTCCYQTVLLCER | -0.341 ± 0.48 |
| HHLVISCDSLENASYRLCIQ | 1.45 ± 0.43 |
| YRYHVSCTYAVSLGAAKSNA | -0.078 ± 0.72 |
| FVVIEILDFSPFDHCFIILE | 1.26 ± 0.48 |
| HGMWNGFTILM | 3.26 ± 0.11 |
| QYFSWGRVATCSACG | 0.309 ± 0.62 |
| LKSLLNSSGVTLGEVLRMGV | -0.091 ± 0.45 |
| WISFPLV | 0.046 ± 0.48 |
| AYTEMNLRIVERYSMNTIRP | 2.14 ± 0.26 |
| TWAVSNLSRV | -1.61 ± 0.59 |
| KSRRSCQQLIIVKHVVHARR | 4.08 ± 0.061 |
| ERFLFGSMSTYANGRCVGAY | -1.11 ± 2.4 |
| YNFRTVNFHIGTPSICFGHD | inactive |
| NKYLDSKDWRAFCRSYFNLF | 0.891 ± 0.14 |
| FYLGPCYAVIWVNFQLPLGV | 0.596 ± 0.33 |
| FDAAIVLCSDVSIKGCLSRN | 1.27 ± 0.27 |
| NFFFRMNIN | 2.18 ± 0.39 |
| GRGLADISYVYRDVWICLAI | 0.83 ± 0.43 |
| PCFSLLDSQRFVFGAKIILR | 0.093 ± 0.69 |
| RTICKVIFVSEVKSLFWNMS | 1.87 ± 0.41 |

| Substance | amyloid nucleation score |
| --- | --- |
| LKSSSCHQTSISHRALFCNL | -0.373 ± 1.2 |
| KSTLVKHLNQYYRLVLMGPL | 1.1 ± 0.54 |
| MIQRGLVGKDSTHVI | -0.175 ± 0.57 |
| YCKLDLPVTIEVKCSRGRMS | 5.17 ± 0.08 |
| LTGSISD | 1.17 ± 0.73 |
| KHCTRFRVRRMYYDVTKILL | inactive |
| LFSWVCIFECLPFKNWSQTV | inactive |
| GSADMRLDLQVVGCMTCRFE | 0.386 ± 1.1 |
| CKMNYGLVLAGSLGVGSGQD | 0.317 ± 0.42 |
| TYDALRGYNYHLWSNQFTFY | 4.84 ± 0.066 |
| CMWWSCGSNIVYVALLMWCH | -0.191 ± 0.4 |
| KRIVCMFSWPSLT | -0.921 ± 0.88 |
| IMKRCCGESMMPDAGWSGSA | -0.401 ± 1 |
| RGFMWLACITCFYAVCYNVS | 0.005 ± 0.45 |
| CFQLRVGMTDDALWRLMC | -0.452 ± 1.9 |
| NVMCAGYIIMGATMYKKWVM | 0.902 ± 0.29 |
| EDPVLSREGCKQVNPWILWG | 0.201 ± 1.4 |
| SAHHLVIRFGMLYPREQHCL | 0.299 ± 0.43 |
| STKWLFGKNGVSLYLLSRRR | 2.58 ± 0.13 |
| MDFDRCYSFRGMR | -0.13 ± 0.47 |
| SELGVSSVRLERAFILGSWT | -1.63 ± 1 |
| DYSVYRSERMCTLRAS | -0.279 ± 0.36 |
| MSSRDNFWVSRGAMNYRMGA | -0.325 ± 0.33 |
| YERIPFLDSGTYGIYDWTAR | -0.372 ± 0.3 |
| RLIFEVFYLTFRVLT | -0.457 ± 0.39 |

| Substance | amyloid nucleation score |
| --- | --- |
| CYGFLVSMMSYLSLVELVFL | -0.04 ± 0.26 |
| IYQQIYN | -0.807 ± 2.4 |
| TSYVMPEGFAVGFKMSM | 0.205 ± 0.66 |
| KAMLNNKWHLCSHVRTDHAV | 0.172 ± 0.32 |
| VWRADMCSHS | -0.17 ± 0.53 |
| YNFERDYLSVYHFAWLIP | 0.372 ± 0.54 |
| IWDCLFPSSSAMSYPVDPKA | 0.547 ± 0.42 |
| RFHWACKVYLSNYMV | 0.69 ± 0.25 |
| MDSRAVYYF | inactive |
| CRNWKWSRRFYYGERNGGRL | 0.416 ± 0.81 |
| LIIRVWLKNQPDTLGKRRRE | -0.415 ± 1.4 |
| LIDRCWMAGRAFNLLMF | -0.331 ± 0.76 |
| VNVPHKTWIPDGDLRYYLTL | -0.891 ± 0.85 |
| IHLNQ | 1.15 ± 0.55 |
| KKPCVTGYRKNRWEELEP | -0.393 ± 0.42 |
| QVCLNDRNSSYVMRDICVY | -0.334 ± 1.2 |
| QGILCFSIHSSNSMTGNTVF | 0.038 ± 0.25 |
| VSIGIISII | -0.663 ± 1.6 |
| SSTLFMKSYIFDPQKLNSPP | 0.375 ± 0.42 |
| LFRLIAFWDWLYSWNRFFGW | 0.481 ± 0.43 |
| RYDTNMFFSCCT | 5.591 ± 0.054 |
| FNGGNTFVCVSLDTCWNGWY | 7.54 ± 0.085 |
| RSSKGIPLMENPLVYTMASR | 0.005 ± 1.7 |
